From patent publication US20190310251A1

Key:
[1] = target: membrane-bound non-cleavable TNFα (human) (UniProt P01375); test: cell-based or functional assay
CD20 = CD20 (UniProt P11836); test: cell-based or functional assay
Sequence of UniProt P11836 (P11836 whole entry): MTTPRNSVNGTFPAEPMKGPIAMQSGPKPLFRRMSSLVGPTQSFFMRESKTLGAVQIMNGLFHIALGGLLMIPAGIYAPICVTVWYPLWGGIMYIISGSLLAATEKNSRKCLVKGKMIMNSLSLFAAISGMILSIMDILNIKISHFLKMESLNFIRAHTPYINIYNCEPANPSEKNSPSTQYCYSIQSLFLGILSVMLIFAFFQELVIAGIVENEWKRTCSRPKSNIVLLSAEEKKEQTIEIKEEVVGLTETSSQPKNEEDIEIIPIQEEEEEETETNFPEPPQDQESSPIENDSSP

Sequence of UniProt P01375 (P01375 whole entry A76L/V77L): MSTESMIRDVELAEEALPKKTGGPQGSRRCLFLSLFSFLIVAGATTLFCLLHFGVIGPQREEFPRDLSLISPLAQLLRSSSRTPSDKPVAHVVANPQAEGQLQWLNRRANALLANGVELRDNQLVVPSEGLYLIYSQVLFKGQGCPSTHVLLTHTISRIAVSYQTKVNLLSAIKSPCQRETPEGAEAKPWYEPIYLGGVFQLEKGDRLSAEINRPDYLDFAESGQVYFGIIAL

adalimumab (antibody)
ADCC Reporter Gene Assay, Serum Sample/Control; Hum. Serum + adalimumab [1]: 2.39 | ADCC Reporter Gene Assay, Serum Sample/Control; No Hum. Serum + adalimumab [1]: 2.65 | ADCC Reporter Gene Assay, Target Positive Cells (RLU); Hum. Serum + adalimumab [1]: 27000 RLU | ADCC Reporter Gene Assay, Target Positive Cells (RLU); No Hum. Serum + adalimumab [1]: 30000 RLU | ADCC Reporter Gene Assay, Target+/Target-; Hum. Serum + adalimumab [1]: 12.3 | ADCC Reporter Gene Assay, Target+/Target-; No Hum. Serum + adalimumab [1]: 17.6

etanercept (Fc fusion)
ADCC Reporter Gene Assay, Serum Sample/Control; Hum. Serum + Etanercept [1]: 2.77 | ADCC Reporter Gene Assay, Serum Sample/Control; No Hum. Serum + Etanercept [1]: 2.66 | ADCC Reporter Gene Assay, Target Positive Cells (RLU); Hum. Serum + Etanercept [1]: 23700 RLU | ADCC Reporter Gene Assay, Target Positive Cells (RLU); No Hum. Serum + Etanercept [1]: 22800 RLU | ADCC Reporter Gene Assay, Target+/Target-; Hum. Serum + Etanercept [1]: 13.1 | ADCC Reporter Gene Assay, Target+/Target-; No Hum. Serum + Etanercept [1]: 14.1

rituximab (antibody)
EC50 of the ADCC reporter gene assay (NFAT effector cells & wild type Raji cells, no human serum) (CD20): 1.2 µg/mL | EC50 of the ADCC reporter gene assay (iLite effector cells & CD20++ target cells, no human serum) (CD20): 2 ng/mL
